“And” between values parts separate entries of the source, which are not always exact repeats. Equal entries are not always repeated.
Experiments:
[1] = Substrate selectivity of DAO-1 (DA-67 assay), putrescine; assay type: biochemical; conditions: 100% = 10 mM histamine
Description: (§1) The amino acids L-tryptophan, L-lysine, L-histidine, and L-arginine were also tested.

[2] = Substrate selectivity of DAO-1 (DA-67 assay), spermidine; assay type: biochemical; conditions: 100% = 10 mM histamine
Description: as §1

[3] = Substrate selectivity of DAO-1 (DA-67 assay), tyramine; assay type: biochemical; conditions: 100% = 10 mM histamine
Description: as §1

[4] = Substrate selectivity of DAO-1 (DA-67 assay), cadaverine; assay type: biochemical; conditions: 100% = 10 mM histamine
Description: as §1

[5] = Substrate selectivity of DAO-1 (DA-67 assay), amino acids; assay type: biochemical; conditions: L-tryptophan, L-lysine, L-histidine, L-arginine at 1, 10 and 50 mM
Description: as §1

[6] = Temperature and pH profile of DAO-1 (DA-67 assay); assay type: biochemical
Description: The influence of temperature on the enzyme activity of DAO-1 was tested under standard assay conditions, whereby the incubation temperature was varied between 2° and 47° C. The pH-dependency of the DAO-1 activity was investigated under standard assay conditions at 37° C., whereby different buffer systems (50 mM sodium phosphate buffer, pH 6.2-7.8; 50 mM PIPES, pH 7-7.5; 50 mM Tris-HCl, pH 7.2-8.5) were used. The respective buffer system was calibrated with hydrogen peroxide (0.5 to 10 nmol/mL). Analytically pure histamine was used as a substrate for the temperature and pH profiles.

[7] = Substrate selectivity of DAO-1 (DA-67 assay), agmatine; assay type: biochemical; conditions: 100% = 10 mM histamine
Description: as §1

[8] = pH-stability of DAO-1 in buffer systems at 37° C; assay type: physicochemical
Description: Consequently, DAO-1 was incubated for 5 h at 37° C. and stirred at 400 rpm in the following buffer systems: 20 mM MES (pH 5.5), 20 mM sodium phosphate buffer (pH 6.2, 7.0, 7.2, 7.8, 8.0), 20 mM PIPES (pH 7.0, 7.2, 7.5) and 20 mM Tris-HCl (pH 6.8, 7.5, 8.2). Afterwards, the residual enzyme activity of DAO-1 was determined under standard assay conditions and compared to the DAO-1 activity applied initially.

[9] = Substrate selectivity of DAO-1 (DA-67 assay), histamine; assay type: biochemical
Description: as §1

[10] = DAO activity determination, colorimetric DA-67 enzyme assay (specific / total DAO activity); assay type: biochemical
Description: The DAO activity was determined using the colorimetric DA-67 enzyme assay, as known in the art.

[11] = substrate: NCCc1c[nH]cn1; assay: purified protein, by the assay type
[12] = Histamine bioconversion with DAO-1 in PIPES buffer with simulated food matrix (RP-HPLC); assay type: biochemical; conditions: for histamine concentration after bioconversion: 0.1 nkat/mL DAO-1, 5 h
Description: An amount of 5 g/L BSA and 25 g/L sucrose were added to the approach to simulate a food matrix. Additionally, catalase was added (30 nkat/mL) to remove the hydrogen peroxide. The experiment was started by the addition of 0.1 nkat/mL DAO-1 activity.

[13] = Michaelis-Menten kinetics of DAO-1 in PIPES buffer; assay type: biochemical; conditions: read-out: Km for histamine; PIPES buffer 25 mM pH 7.2, 37° C
Description: Kinetic investigations were done within the initial reaction velocity.

[14] = Stability of DAO-1 in simulated intestinal fluid (SIF) with and without food matrices; assay type: in vitro ADME
Description: The stability of DAO-1 was tested in a simulated intestinal fluid (SIF) with and without the addition of simulated food matrices. Therefore, pancreatin-containing SIF was prepared as described in the United States Pharmacopeia (USP42). Different food-matrix stock solutions (4× concentrated) were prepared as follows: 200 g/L bovine serum albumin (BSA) and 100 g/L sucrose (=food-matrix 1), 100 g/L BSA, 100 g/L whey protein isolate (WPI) and 200 g/L sucrose (=food-matrix 2) and BSA, WPI, sodium-caseinate each at 66.68 g/L and 200 g/L sucrose (=food-matrix 3). The pH of each stock solution was adjusted to 6.8 with 1 M NaOH. The freshly prepared 2× concentrated SIF, the food-matrix stock solutions as well as DAO-1 (desalted against H2Odd using PD MidiTrap G-25 columns; GE Healthcare, Chicago, USA) were individually incubated for 5 min in a thermoshaker at 37° C. Subsequently, 500 μL of 2× concentrated SIF, 250 μL of DAO-1 and 250 μL of the food-matrix stock solutions were combined and incubated at 37° C., 500 rpm in a thermoshaker. In order to test the stability of DAO-1 without the presence of stabilizing compounds, H2Odd was added instead of the food-matrix stock solution. Immediately after combining the solutions, a sample of 100 μL was taken and used for the DAO-1 activity determination using the DA-67 assay.

[15] = Substrate selectivity of DAO-1 (DA-67 assay), tryptamine; assay type: biochemical; conditions: substrate tryptamine 1 mM; 100% = 10 mM histamine
Description: as §1

[16] = bioreactor cultivation, crude extract
[17] = other: apparent, histamine 0.5-50 mM, PIPES buffer (25 mM; pH 7.2), 37° C., pH 7.2

B1: Yarrowia lipolytica PO1f diamine oxidase-1 (DAO-1), wild type, SEQ ID NO: 1 (Yarrowia lipolytica CLIB122) (protein)
chain: MTPHPFDQLSVQEMESVVRVVKSNHSGKSLHLKSIGTEEPPKALMAPFLAAKRAGKNPVPPPRIAHVIYYVLEDKLVNQCWVDVPSAKVVKSEVLKKGIHPPIDPWEANEAFEAAFDHPLVKDAIKKCGVEHLIDNLTIDGWMYGCDSEIDMPRYLQMLVYCRDPKTNHQDSNMYAFPVPFVPVYDVLEKKLVRVDYCATGGDDDDAAVEGVGNYDTRPEGKNCIEHCVTNDYLPELQDKMRTDLKPYNVLQPEGPSYHIDSDGYINWQKWHFKVGFTPREGLVIHDVHYDGRSTFYRLSMSEMAVPYADPRPPLHRKMAFDFGDCGGGKCANELTLGCDCLGTIRYFDGNVCDPEGNVFTRKNVICMHEQDDGIGWKHTNYRTDVVAITRRRILVLQTILTVGNYEYIFAWHFDQSAGIQLEIRATGIVSTQLIDAGKKSKFGTIVSPGVMAASHQHIFNVRMDPAIDGHQNTVVVNDTVALPWDAKNPHGIAFENTKTPIEKSCYLDSDIQKNRYLKICNENKINPISGNPVGYKIGGLATAMLYAQPGSVSRNRAAFATHHYWVTKYKDQELFAGGVWTNQSANEVGGVQDAVARNENVRNDDVVLWHSFGLTHHPRVEDFPVMPCEIMKIHLSPNDFFTGNPSVDVPKSNQTFNRSVEVKDCRSCKI
DAO-1 activity [%] ([1]; substrate putrescine 1 mM): 29.8 ± 0.4%
DAO-1 activity [%] ([1]; substrate putrescine 10 mM): 92.9 ± 1.4%
DAO-1 activity [%] ([1]; substrate putrescine 50 mM): 77.9 ± 1.1%
DAO-1 activity [%] ([2]; substrate spermidine 1 mM): 2.1 ± 1.6%
DAO-1 activity [%] ([2]; substrate spermidine 10 mM): 3.8 ± 0.9%
DAO-1 activity [%] ([2]; substrate spermidine 50 mM): 2.1 ± 1.3%
DAO-1 activity [%] ([3]; substrate tyramine 1 mM): 303.9 ± 4.4%
DAO-1 activity [%] ([3]; substrate tyramine 10 mM): 246.8 ± 3.6%
DAO-1 activity [%] ([3]; substrate tyramine 50 mM): 66.4 ± 1.0%
DAO-1 activity [%] ([4]; substrate cadaverine 1 mM): 29.6 ± 0.4%
DAO-1 activity [%] ([4]; substrate cadaverine 10 mM): 87.3 ± 1.3%
DAO-1 activity [%] ([4]; substrate cadaverine 50 mM): 64.5 ± 1.0%
DAO-1 activity towards amino acids [5]: did not show any activity
relative DAO-1 activity ([6]; 42° C, relative to maximum at 40° C): 76±1%
relative DAO-1 activity ([6]; 45° C, relative to maximum at 40° C): 31.7±1%
DAO-1 activity compared to the maximal activity in Tris-HCl at pH 7.2 ([6]; PIPES buffer): 92.2±3.9%
temperature of maximal DAO-1 activity ([6]; PIPES buffer 25 mM pH 7.2, histamine substrate): 40 °C
pH of maximal DAO activity ([6]; Tris-HCl buffer (50 mM), 37° C, histamine substrate): 7.2
Maximal DAO-1 activity (100%) ([6]; pH/buffer profile at 37° C (FIG. 8)): 1.84±0.03 nkat/mL
Maximal DAO-1 activity (100%) ([6]; temperature profile, PIPES 25 mM pH 7.2 (FIG. 7)): 1.88±0.01 nkat/mL
relative DAO-1 activity ([6]; temperature range between 3° and 42° C): greater than 50%
DAO-1 activity [%] ([7]; substrate agmatine 1 mM): 31 ± 1.1%
DAO-1 activity [%] ([7]; substrate agmatine 10 mM): 30.6 ± 2.7%
DAO-1 activity [%] ([7]; substrate agmatine 50 mM): 7.4 ± 2.3%
residual DAO-1 activity ([8]; 37° C, 5 h, pH range from 6.2 to 7.5): more than 60%
residual DAO-1 activity ([8]; 37° C, 24 h): 53.7±1.2%
residual DAO-1 activity ([8]; PIPES buffer (20 mM) pH 7.0, 37° C, 5 h): 89.5±0.8%
DAO-1 activity [%] ([9]; substrate histamine 1 mM, 100% = 10 mM histamine): 45.1 ± 0.7%
DAO-1 activity [%] ([9]; substrate histamine 10 mM, reference 100%): 100 ± 1.5%
DAO-1 activity [%] ([9]; substrate histamine 50 mM, 100% = 10 mM histamine): 74.4 ± 1.1%
increase of specific DAO-1 activity compared to the recent work ([10]; 5 L scale purified preparation): 3 fold
specific DAO-1 activity ([10]; 5 L scale, stirred media mill, ammonium sulfate precipitation and HIC): 15 μkat/gProtein
specific DAO-1 activity of crude extract relative to partially purified porcine DAO ([10]; 1301 vs 81 nkat/gProtein): around 16 times
specific DAO-1 activity ([10]; DAO-1 produced in Komagataella phaffii, fed-batch bioreactor): 2500 nkat/gProtein
specific DAO-1 activity relative to specific DAO activity obtained from porcine kidney ([10]; K. phaffii DAO-1 after assumed 7.2-fold purification): more than 200 fold
specific DAO-1 activity ([10]; after (NH4)2SO4 precipitation and hydrophobic interaction chromatography): 4738±31 nkat/gProtein
specific DAO-1 activity ([10]; after cell disruption (high-pressure homogenizer) of 10 g wet yeast biomass, before purification): 660±28 nkat/gProtein
increase in specific DAO activity compared with extracted and purified DAO from porcine kidney ([10]; after chromatographic purification): ~60 fold
increase in specific DAO activity compared with DAO extraction from porcine kidney [10, 16]: 145 fold
increase in specific DAO activity compared with native DAO-1 production in Y. lipolytica PO1f [10, 16]: 93 fold
specific DAO-1 activity ([10]; crude extract, bioreactor cultivation of Y. lipolytica PO1f_axp_dao-1, final (96 h)): 1301±54.2 nkat/gProtein
Km [11, 17]: 2300 ± 200 µM
Vmax [11, 17]: 9.09±0.37 nkat/mg
Km ([11]; other: hydrolyzed food-matrix SIF 3 (pancreatin, 90 min at 37° C.), pH 6.8, histamine 1.56-50 mM, pH 6.8): 4200 ± 500 µM
residual activity of DAO-1 after bioconversion ([12]; after 5 h bioconversion at 37° C, determined by RP-HPLC): 57.4±1.3%
histamine concentration at start of stagnation ([12]; around 4 h): 43.5±0.76 mg/L and 0.39±0.01 mM
histamine concentration after bioconversion ([12]; initial 1.35 mM, 37° C): 0.34 ± 0.01 mM
histamine concentration after bioconversion ([12]; initial 150 mg/L, 37° C): 37.4±0.65 mg/L and 37.4±+0.65 mg/L
remaining histamine relative to initial (100%) ([12]; initial 150 mg/L, 5 hours, 37° C): 25±1.7%
Km [13]: 2300 µM
half-life period ([14]; food-matrix SIF 1 (50 g/L BSA, 25 g/L sucrose), 37° C): around 15 min
half-life period ([14]; food-matrix SIF 2 (25 g/L BSA, 25 g/L WPI, 50 g/L sucrose), 37° C): around 30 min
initially applied DAO-1 activity available over 90 min ([14]; food-matrix SIF 3, 37° C): around 43%
residual DAO-1 activity ([14]; food-matrix SIF 3, 90 min, 37° C): 8±0.1%
half-life period ([14]; pure SIF (pancreatin), 37° C): less than 5 min
DAO-1 activity [%] [15]: 166.1 ± 0.8%
